# In FireProtDB:
# B1: Ribonuclease HI, P0A7Y4 (parent)
# chain: MLKQVEIFTDGSCLGNPGPGGYGAILRYRGREKTFSAGYTRTTNNRMELMAAIVALEALKEHCEVILSTDSQYVRQGITQWIHNWKKRGWKTADKKPVKNVDLWQRLDAALGQHQIKWEWVKGHAGHPENERCDELARAAAMNPTLEDTGYQVEV
# B2: Serine proteinase inhibitor IA-1, Q7M4T6 (parent)
# chain: SAGKFIVIFKNDVSEDKIRETKDEVIAEGGTITNEYNMPGMKGFAGELTPQSLTKFQGLQGDLIDSIEEDGIVTTQ
# B3: 3-isopropylmalate dehydrogenase, P05645 (parent)
# chain: MKKRIALLPGDGIGPEVLESATDVLKSVAERFNHEFEFEYGLIGGAAIDEHHNPLPEETVAACKNADAILLGAVGGPKWDQNPSELRPEKGLLSIRKQLDLFANLRPVKVFESLSDASPLKKEYIDNVDFVIVRELTGGLYFGQPSKRYVNTEGEQEAVDTLFYKRTEIERVIREGFKMAAARKGKVTSVDKANVLESSRLWREVAEDVAQEFPDVKLEHMLVDNAAMQLIYAPNQFDVVVTENMFGDILSDEASMLTGSLGMLPSASLSSSGLHLFEPVHGSAPDIAGKGMANPFAAILSAAMLLRTSFGLEEEAKAVEDAVNKVLASGKRTRDLARSEEFSSTQAITEEVKAAIMSENTISNV
# B4: Subtilisin-chymotrypsin inhibitor-2A, P01053 (parent)
# chain: MSSVEKKPEGVNTGAGDRHNLKTEWPELVGKSVEEAKKVILQDKPEAQIIVLPVGTIVTMEYRIDRVRLFVDKLDNIAQVPRVG
# B5: Glypican-1, P35052 (parent)
# chain: MELRARGWWLLCAAAALVACARGDPASKSRSCGEVRQIYGAKGFSLSDVPQAEISGEHLRICPQGYTCCTSEMEENLANRSHAELETALRDSSRVLQAMLATQLRSFDDHFQHLLNDSERTLQATFPGAFGELYTQNARAFRDLYSELRLYYRGANLHLEETLAEFWARLLERLFKQLHPQLLLPDDYLDCLGKQAEALRPFGEAPRELRLRATRAFVAARSFVQGLGVASDVVRKVAQVPLGPECSRAVMKLVYCAHCLGVPGARPCPDYCRNVLKGCLANQADLDAEWRNLLDSMVLITDKFWGTSGVESVIGSVHTWLAEAINALQDNRDTLTAKVIQGCGNPKVNPQGPGPEEKRRRGKLAPRERPPSGTLEKLVSEAKAQLRDVQDFWISLPGTLCSEKMALSTASDDRCWNGMARGRYLPEVMGDGLANQINNPEVEVDITKPDMTIRQQIMQLKIMTNRLRSAYNGNDVDFQDASDDGSGSGSGDGCLDDLCSRKVSRKSSSSRTPLTHALPGLSEQEGQKTSAASCPQPPTFLLPLLLFLALTVARPRWR
# B6: Pyrrolidone-carboxylate peptidase, O73944 (parent)
# chain: MKVLVTGFEPFGGEKINPTERIAKDLDGIKIGDAQVFGRVLPVVFGKAKEVLEKTLEEIKPDIAIHVGLAPGRSAISIERIAVNAIDARIPDNEGKKIEDEPIVPGAPTAYFSTLPIKKIMKKLHERGIPAYISNSAGLYLCNYVMYLSLHHSATKGYPKMSGFIHVPYIPEQIIDKIGKGQVPPSMCYEMELEAVKVAIEVALEELL
# B7: Citrate synthase, mitochondrial, P00889 (parent)
# chain: MALLTAAARLFGAKNASCLVLAARHASASSTNLKDILADLIPKEQARIKTFRQQHGNTVVGQITVDMMYGGMRGMKGLVYETSVLDPDEGIRFRGYSIPECQKMLPKAKGGEEPLPEGLFWLLVTGQIPTEEQVSWLSKEWAKRAALPSHVVTMLDNFPTNLHPMSQLSAAITALNSESNFARAYAEGIHRTKYWELIYEDCMDLIAKLPCVAAKIYRNLYREGSSIGAIDSKLDWSHNFTNMLGYTDAQFTELMRLYLTIHSDHEGGNVSAHTSHLVGSALSDPYLSFAAAMNGLAGPLHGLANQEVLVWLTQLQKEVGKDVSDEKLRDYIWNTLNSGRVVPGYGHAVLRKTDPRYTCQREFALKHLPHDPMFKLVAQLYKIVPNVLLEQGKAKNPWPNVDAHSGVLLQYYGMTEMNYYTVLFGVSRALGVLAQLIWSRALGFPLERPKSMSTDGLIKLVDSK
# B8: Alpha-amylase, P29957 (parent)
# chain: MKLNKIITTAGLSLGLLLPSIATATPTTFVHLFEWNWQDVAQECEQYLGPKGYAAVQVSPPNEHITGSQWWTRYQPVSYELQSRGGNRAQFIDMVNRCSAAGVDIYVDTLINHMAAGSGTGTAGNSFGNKSFPIYSPQDFHESCTINNSDYGNDRYRVQNCELVGLADLDTASNYVQNTIAAYINDLQAIGVKGFRFDASKHVAASDIQSLMAKVNGSPVVFQEVIDQGGEAVGASEYLSTGLVTEFKYSTELGNTFRNGSLAWLSNFGEGWGFMPSSSAVVFVDNHDNQRGHGGAGNVITFEDGRLYDLANVFMLAYPYGYPKVMSSYDFHGDTDAGGPNVPVHNNGNLECFASNWKCEHRWSYIAGGVDFRNNTADNWAVTNWWDNTNNQISFGRGSSGHMAINKEDSTLTATVQTDMASGQYCNVLKGELSADAKSCSGEVITVNSDGTINLNIGAWDAMAIHKNAKLNTSSASSTESDWQRTVIFINAQTQSGQDMFIRGGIDHAYANANLGRNCQTSNFECAMPIRHNNLKNVTTSPWKANDNYLDWYGIENGQSSEAEGSATDWTTNVWPAGWGAEKTVNTDGFGVTPLNIWGEHYWMLDVDMDCSKAVNGWFELKAFIKNGQGWETAIAQDNAPYTSTNHMAQCGKINKFEFNNSGVVIRSF
# Variants of: B1
# Conditions: Escherichia coli (strain K12); pH 3; 49.8 °C; Thermal; CD; glycine-HCl 10 mM; reversible: yes; structure 2RN2; whole UniProt chain shown
row,Variant,ddG of mutation (higher = less stable) [kcal/mol]
1,H62P,-1

# Same assay, conditions: Escherichia coli (strain K12); pH 3; 50.1 °C; Thermal; CD; glycine-HCl 10 mM; NaCl 0.1 M; reversible: yes; structure 2RN2; whole UniProt chain shown
row,Variant,ddG of mutation (higher = less stable) [kcal/mol]
1,H62P,-1
2,H62R,0.03

# Same assay, conditions: Escherichia coli (strain K12); pH 3; Thermal; CD; glycine-HCl 10 mM; NaCl 0.1 M; reversible: yes; structure 2RN2; whole UniProt chain shown
Variant,Tm [°C],"change of melting temperature, mutant - wild type (higher = more stable) [°C]",unfolding enthalpy (van 't Hoff) [kcal/mol]
H62P,53.5,3.4,110
H62R,50,-0.1,114

# Same assay, conditions: Escherichia coli (strain K12); pH 3; Thermal; CD; glycine-HCl 10 mM; reversible: yes; structure 2RN2; whole UniProt chain shown
Variant,Tm [°C],"change of melting temperature, mutant - wild type (higher = more stable) [°C]",unfolding enthalpy (van 't Hoff) [kcal/mol]
H62P,53.2,3.4,110

# Same assay, conditions: Escherichia coli (strain K12); pH 5.5; 25 °C; GdnHCl; CD; Sodium acetate 20 mM; reversible: yes; structure 2RN2; whole UniProt chain shown
Variant,ddG of mutation (higher = less stable) [kcal/mol],denaturant m value [kcal/mol/M],denaturant midpoint (higher = more stable) [M],unfolding free energy [kcal/mol]
H62P,-0.74,4.98,1.98,9.89

# Same assay, conditions: Escherichia coli (strain K12); pH 5.5; 52 °C; Thermal; CD; Sodium acetate 20 mM; reversible: yes; structure 2RN2; whole UniProt chain shown
row,Variant,ddG of mutation (higher = less stable) [kcal/mol]
1,H62P,-1.1

# Same assay, conditions: Escherichia coli (strain K12); pH 5.5; 52.7 °C; Thermal; CD; Sodium acetate 20 mM; NaCl 0.1 M; reversible: yes; structure 2RN2; whole UniProt chain shown
row,Variant,ddG of mutation (higher = less stable) [kcal/mol]
1,H62P,-1.1
2,H62R,-0.36

# Same assay, conditions: Escherichia coli (strain K12); pH 5.5; Thermal; CD; Sodium acetate 20 mM; NaCl 0.1 M; reversible: yes; structure 2RN2; whole UniProt chain shown
Variant,Tm [°C],"change of melting temperature, mutant - wild type (higher = more stable) [°C]",unfolding enthalpy (van 't Hoff) [kcal/mol]
H62P,56.8,4.1,102
H62R,54,1.3,97.1

# Same assay, conditions: Escherichia coli (strain K12); pH 5.5; Thermal; CD; Sodium acetate 20 mM; reversible: yes; structure 2RN2; whole UniProt chain shown
Variant,Tm [°C],"change of melting temperature, mutant - wild type (higher = more stable) [°C]",unfolding enthalpy (van 't Hoff) [kcal/mol]
H62P,56.1,4.1,102

# Variants of: B2
# Conditions: Pleurotus ostreatus; pH 7; Thermal; CD; sodium phosphate 50 mM; whole UniProt chain shown
Variant,Tm [°C],"change of melting temperature, mutant - wild type (higher = more stable) [°C]"
F56A,46,-13

# Variants of: B3
# Conditions: Bacillus subtilis (strain 168); pH 7.6; Thermal; CD; potassium phosphate 20 mM; reversible: No; whole UniProt chain shown
row,Variant,"change of melting temperature, mutant - wild type (higher = more stable) [°C]"
1,M256V,2.5
2,M256A,7
3,M256I,0
4,M256L,0
5,M256F,-12.5

# Same assay, conditions: Bacillus subtilis (strain 168); pH 7.6; Thermal; CD; Potassium phosphate 20 mM; reversible: yes; whole UniProt chain shown
row,Variant,Tm [°C]
1,I95L M292I T308I,70
2,I95L T308I,66

# Variants of: B4
# Conditions: Hordeum vulgare; pH 6.3; 25 °C; GdnHCl; Fluorescence; MES 50 mM; structure 2CI2; whole UniProt chain shown
row,Variant,unfolding free energy [kcal/mol]
1,P53E F70A,2.61
2,L21M,7.3

# Same assay, conditions: Hordeum vulgare; pH 7; 30 °C; GdnHCl; Fluorescence; MOPS 50 mM; structure 2CI2; whole UniProt chain shown
Variant,ddG of mutation (higher = less stable) [kcal/mol],denaturant m value [kcal/mol/M],unfolding free energy [kcal/mol]
I40L,1.96,1.92,5.09
I40V,1.17,1.92,5.88

# Same assay, conditions: Hordeum vulgare; pH 4.2; 50 °C; GdnHCl; Fluorescence; Sodium acetate 50 mM; reversible: yes; structure 2CI2; whole UniProt chain shown
Variant,ddG of mutation (higher = less stable) [kcal/mol],unfolding free energy [kcal/mol]
R68A,1.4,4.1

# Variants of: B5
# Conditions: Homo sapiens; pH 7.4; Thermal; CD; Sodium Phosphate Buffer; reversible: no; structure 4ACR; whole UniProt chain shown
Variant,Tm [°C],"change of melting temperature, mutant - wild type (higher = more stable) [°C]"
N79Q,66,0
N79Q N116Q,66,-3

# Same assay, conditions: Homo sapiens; pH 7; 20 °C; Urea; CD; Sodium Phosphate Buffer; transition: 2; structure 4ACR; whole UniProt chain shown
row,Variant,denaturant midpoint (higher = more stable) [M]
1,N79Q N116Q,5.37

# Variants of: B6
# Conditions: Pyrococcus furiosus (strain ATCC 43587 / DSM 3638 / JCM 8422 / Vc1); pH 7; 60 °C; GdnHCl; CD; Tris-HCl 20 mM; reversible: yes; structure 1IOF; whole UniProt chain shown
Variant,denaturant m value [kcal/mol/M],denaturant midpoint (higher = more stable) [M],unfolding free energy [kcal/mol]
C142S C188S,4.16,3.4,13.5

# Variants of: B7
# Conditions: Sus scrofa; pH 7.5; Thermal; CD; Tris-HCl 5.0 mM; reversible: yes; structure 1CTS; whole UniProt chain shown
Variant,Tm [°C],"change of melting temperature, mutant - wild type (higher = more stable) [°C]"
D402Q,69,11.1
D402G,62.5,4.6
H301R,56.8,-1.1
H301G,56,-1.9

# Variants of: B8
# Conditions: Pseudoalteromonas haloplanktis; pH 7.2; Thermal; DSC; MOPS 30 mM; NaCl 50 mM; reversible: yes; structure 1AQH; whole UniProt chain shown
Variant,Tm [°C],"change of melting temperature, mutant - wild type (higher = more stable) [°C]",unfolding enthalpy (calorimetric) [kcal/mol]
Q82C A123C,40,-4,78
